Experimental findings from article PMC3072985 are described below.

The term stoichiometry N denotes a count of units in the complex or per binding partner.

In this assay the target is Mycobacterium tuberculosis Bacterioferritin B (BfrB), full length (Mycobacterium tuberculosis H37Rv) (UniProt P9WNE5). Briefly: crystal structure; recombinant BfrB, 11 mg/ml, 20% PEG 3350, 0.1 M Tris pH 8.5, 293 K; 3.0 Å; 24 subunits in the asymmetric unit.

As to “Mycobacterium tuberculosis Bacterioferritin B (BfrB), full length (from UniProt P9WNE5 1-181) (natural protein)”, the stoichiometry N is 24.
